Data on 5 molecules can be found in paper PMC3326525 (Nature structural & molecular biology, 2011).

The target in one series is T1, MBP-RNF4 (wild-type) (Rattus norvegicus, UniProt O88846 1-194).
T1 sequence: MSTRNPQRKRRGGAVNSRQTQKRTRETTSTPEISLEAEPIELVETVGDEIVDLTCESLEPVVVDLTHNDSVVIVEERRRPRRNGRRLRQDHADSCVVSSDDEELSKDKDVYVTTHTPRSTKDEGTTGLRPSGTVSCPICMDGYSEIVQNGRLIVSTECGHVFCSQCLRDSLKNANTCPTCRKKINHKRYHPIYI
In words: pull-down.

Series [1] concerns the target T2, ECFP-RNF4 (wild-type) (Rattus norvegicus, UniProt O88846 1-194).
T2 sequence: T1 sequence
In words: FRET or BRET.

Series [2] addresses T2, ECFP-RNF4 (wild-type). Nature of the series: FRET or BRET. This is another data set of the same source.
Series [3] concerns the molecule itself.

Substitutions are numbered along the chain they refer to. In names and notes the source's numbering stands. Where two headings read alike, the source gives them in different places.

B1: UbcH5a (N77A C85S)~Ub oxyester (complex)
chain 1: not shown
chain 2: […]
For B1, the binding result with MBP-RNF4 (wild-type) is “binds”.

B2: YFP-RING domain of RNF4 (wild-type) (domain or fragment)
chain: VSCPICMDGYSEIVQNGRLIVSTECGHVFCSQCLRDSLKNANTCPTCRKKINHKRYHPIYI
Consider B2, for which the binding result with ECFP-RNF4 (wild-type) [1] is “binds”.

B3: YFP-RING M140A R181A (domain or fragment)
chain: B2 chain with M7A, R48A
Take B3: the binding result with ECFP-RNF4 (wild-type) [2] was “binds”.

B4: RNF4 Y193H (natural protein)
chain: T1 sequence with Y193H
On to B4, for which the binding result with ECFP-RNF4 (wild-type) [1] is “binds”.

B5: RNF4 L152A (natural protein)
chain: T1 sequence with L152A
In the case of B5, the “stoichiometry N” value in series [3] came to 2.

As usually defined, the stoichiometry N is a count of units in the complex or per binding partner.
